T1: F2-04-BSA (#4) (human, conjugated to BSA)
T1 construct: also called mutant F2 peptide fragment #4
T1 peptide: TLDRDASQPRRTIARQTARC

T2: F2-07-BSA (#7) (human, conjugated to BSA)
T2 construct: also called mutant F2 peptide fragment #7
T2 peptide: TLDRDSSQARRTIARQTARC

T3: F2-05-BSA (#5) (human, conjugated to BSA)
T3 construct: also called mutant F2 peptide fragment #5
T3 peptide: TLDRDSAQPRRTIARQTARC

T4: F2-02-BSA (#2) (human, conjugated to BSA)
T4 construct: also called mutant F2 peptide fragment #2
T4 peptide: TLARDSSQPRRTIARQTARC

T5: F2-11-BSA (#11) (human, conjugated to BSA)
T5 construct: also called mutant F2 peptide fragment #11
T5 peptide: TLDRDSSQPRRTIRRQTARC

T6: F2-09-BSA (#9) (human, conjugated to BSA)
T6 construct: also called mutant F2 peptide fragment #9
T6 peptide: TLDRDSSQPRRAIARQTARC

T7: F2-06-BSA (#6) (human, conjugated to BSA)
T7 construct: also called mutant F2 peptide fragment #6
T7 peptide: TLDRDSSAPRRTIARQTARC

T8: F2-08-BSA (#8) (human, conjugated to BSA)
T8 construct: also called mutant F2 peptide fragment #8
T8 peptide: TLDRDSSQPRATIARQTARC

T9: F2-13-BSA (#13) (human, conjugated to BSA)
T9 construct: also called mutant F2 peptide fragment #13
T9 peptide: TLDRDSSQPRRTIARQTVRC

T10: F2-01-BSA (#1) (human, conjugated to BSA)
T10 construct: also called mutant F2 peptide fragment #1
T10 peptide: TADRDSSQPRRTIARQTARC

T11: F2-10-BSA (#10) (human, conjugated to BSA)
T11 construct: also called mutant F2 peptide fragment #10
T11 peptide: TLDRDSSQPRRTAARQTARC

T12: F2-12-BSA (#12) (human, conjugated to BSA)
T12 construct: also called mutant F2 peptide fragment #12
T12 peptide: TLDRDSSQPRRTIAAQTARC

T13: FAM19A5 epitope fragment F2, conjugated to BSA (human, conjugated to BSA)
T13 peptide: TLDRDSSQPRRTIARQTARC

T14: F2-03-BSA (#3) (human, conjugated to BSA)
T14 construct: also called mutant F2 peptide fragment #3
T14 peptide: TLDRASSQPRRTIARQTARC


Tests used:
[1] = target: T1, F2-04-BSA (#4); assay: ELISA, BSA-conjugated mutant F2 peptide coated on plate
[2] = target: T2, F2-07-BSA (#7); assay: as above
[3] = target: T3, F2-05-BSA (#5); assay: as above
[4] = target: T4, F2-02-BSA (#2); assay: as above
[5] = target: T5, F2-11-BSA (#11); assay: as above
[6] = target: T6, F2-09-BSA (#9); assay: as above
[7] = target: T7, F2-06-BSA (#6); assay: as above
[8] = target: T8, F2-08-BSA (#8); assay: as above
[9] = target: T9, F2-13-BSA (#13); assay: as above
[10] = target: T10, F2-01-BSA (#1); assay: as above
[11] = target: T11, F2-10-BSA (#10); assay: as above
[12] = target: T12, F2-12-BSA (#12); assay: as above
[13] = target: Recombinant human FAM19A5 protein (human, UniProt Q7Z5A7 44-132); assay: ELISA
Recombinant human FAM19A5 protein, sequence (Q7Z5A7 other isoform, or with tags, fused parts or gaps): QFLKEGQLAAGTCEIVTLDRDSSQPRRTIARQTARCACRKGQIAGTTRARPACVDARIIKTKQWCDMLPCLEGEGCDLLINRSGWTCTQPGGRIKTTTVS

[14] = target: T13, FAM19A5 epitope fragment F2, conjugated …; assay: ELISA, BSA-conjugated peptide coated on plate
Protocol: Overlapping peptide fragments (F1-F6, See FIG. 1) of the human FAM19A5 protein were synthesized and conjugated to BSA. Binding of the different anti-FAM19A5 antibodies to the BSA-conjugated peptide fragments F1-F6 was determined by ELISA assay. Briefly, FAM19A5 fragment F1-F6 (diluted to 1 μg/mL in 50 mM carbonate buffer (Biosesang) or to 20 μg/mL for high concentration analysis) were used to coat the wells of 96-well immuno plates (Thermo Scientific) (100 μL/well) overnight at 4° C. and then subsequently washed twice in 1×PBS. The plates were then blocked with the blocking buffer (100 μL/well) for 1 hour at room temperature. During the 1-hour incubation, the relevant anti-FAM19A5 antibodies were diluted to 1 μg/mL (or 20 μg/mL for high concentration analysis) in the diluent buffer. Once the plates were washed (2×using 1×PBS), the diluted anti-FAM19A5 antibodies were added to the appropriate wells, and the plates were incubated at room temperature for 1 hour. The plates were subsequently washed for a total of five times using the washing buffer. […] The absorption value of each of the wells was detected at 492 nm using a 96-well microplate reader (Molecular Device).

[15] = target: T14, F2-03-BSA (#3); assay: ELISA, BSA-conjugated mutant F2 peptide coated on plate

Row | binding result [1] | binding result [2] | binding result [3] | binding result [4] | binding result [5] | binding result [6] | binding result [7] | binding result [8] | binding result [9] | binding result [10] | binding result [11] | binding result [12] | Kd [13] | binding result [14] | binding result [15] | Binder
1 | binds | binds | binds | binds | binds | binds | binds | binds | binds | binds | binds | binds | 0.17 nM |  |  | Anti-FAM19A5 antibody 1-28 (antibody, V domains shown, also called Anti-FAM19A5 ("1-28")) VH: AVTLDESGGGLQTPGGALSLVCKASGFDFSDYGMGWVRQAPGKGLEWVAAIRSDGSNPSYGSAVKGRATISKDNGRSTVRLQLNNLRAEDTATYYCAKDGNGYCALDAYRSGGYSCGVYPGSIDAWGHGTEVIVSS VL: ALTQPSSVSANLEGTVEITCSGSGYGYGWYQQKSPGSAPVTVIYQNDKRPSDIPSRFSGSKSGSTGTLTITGVQVEDEAVYYCGSEDSSTLAGIFGAGTTLTVL
2 | binds | binds | binds | binds | binds | binds | binds | binds | binds | binds | binds | binds | 0.12 nM | binds | binds | Anti-FAM19A5 antibody 3-2 (antibody, V domains shown, The text reports the results for '3-2' without separating them, so one molecule is written; Only the variable domains are tied to the name; also called h3-2; m3-2) VH: not shown VL: ALTQPSSVSANPGETVKITCSGGGSYAGSYYYGWYQQKAPGSAPVTLIYESNKRPSDIPSRFSGSTSGSTATLTITGVQADDEAIYYCGSWDSSNGGIFGAGTTLTVL
3 |  |  |  |  |  |  |  |  |  |  |  |  | 0.1 nM |  |  | Anti-FAM19A5 antibody 1-65 (antibody, V domains shown, VL = 39 to 42)) VH: AVTLDESGGGLQTPGGALSLVCKASGFTFSSYQMGWVRQAPGKGLEWVGVINKSGSDTSYGSAVKGRATISRDNGQSTVRLQLNNLRAEDTGTYFCAKGSASYITAATIDAWGHGTEVIVSS VL: ALTQPSSVSANPGETVKITCSGGGSSGYGYGWYQQKSPSSAPLTVIYWNDKRPSDIPSRFSGSKSGSTHTLTITGVQAEDEAVYFCGNDDYSSDSGYVGVFGAGTTLTVL
4 |  |  |  |  |  |  |  |  |  |  |  |  | ~2.77 nM |  |  | Anti-FAM19A5 antibody 2-13 (antibody, V domains shown, Chicken-derived scFv clone converted to a full antibody; also called Anti-FAM19A5 ("2-13")) VH: AVTLDESGGGLQTPGGALSLVCKASGFTFSSHGMFWVRQTPGKGLEYVAEITNDGSGTNYGSAVKGRATISRDNGQSTVRLQLNNLRAEDTGTYFCARSTYECPGGFSCWGDTGQIDAWGHGTEVIVSS VL: ALTQPSSVSANPGETVKITCSGGSYSYGWFQQKSPGSALVTVIYWDDERPSDIPSRFSGALSGSTNTLTITGVQADDEAVYFCGTEDISGTAGVFGAGTTLTVL
